Assay results published in patent US20200331991A1.

Tests used:
[1] = molecular target: human α-CGRP V28A (25-37) (human); experiment: Biacore 25 C, Fab over peptide on SA chip; KD ratio to parent 25-37
[2] = molecular target: human α-CGRP F27A (25-37) (human); experiment: as above
[3] = molecular target: human α-CGRP T30A (25-37) (human); experiment: as above
[4] = molecular target: human α-CGRP V32A (25-37) (human); experiment: as above
[5] = molecular target: human α-CGRP S34A (25-37) (human); experiment: as above
[6] = molecular target: human α-CGRP N31A (25-37) (human); experiment: as above
[7] = molecular target: human α-CGRP P29A (25-37) (human); experiment: as above
[8] = molecular target: human α-CGRP G33A (25-37) (human); experiment: as above
[9] = molecular target: human α-CGRP K35A (19-37) (human); experiment: Biacore 25 C, Fab over peptide on SA chip; KD ratio to parent 19-37

anti-CGRP antibody 4901, Fab fragment
KD (mutant/parent) [1]: 0.8 | KD (mutant/parent) [2]: 0.8 | KD (mutant/parent) [3]: 0.2 | KD (mutant/parent) [4]: 0.9 | KD (mutant/parent) [5]: 0.8 | KD (mutant/parent) [6]: 0.3 | KD (mutant/parent) [7]: 0.2 | KD (mutant/parent) [8]: 1.3 | KD (mutant/parent) [9]: 0.3
